In paper PMC11555231, “A cyclic peptide toolkit reveals mechanistic principles of peptidylarginine deiminase IV regulation” (Nature Communications, 2024):
Bridge positions count the residues as written; N and C are the ends. Square brackets hold non-standard residues; d marks the D form.

Tests used:
[1] = biological target: T1, N-terminally biotinylated human PADI4 (bio-His-PADI4) (human, UniProt Q9UM07 1-663, G55S (read from the plasmid's DNA at D1:p46, codon AGC)); not stated by the …, biotin on the Avi-Tag (BirA)); experiment: SPR; as a1 with 10 mM Ca2+ and 200 µM Cl-amidine (PADI4 active site covalently blocked with Cl-amidine); conditions: both partners purified
T1 construct: human PADI4, residues 1-663, cloned into p28BIOH-LIC; The COLDER assays used His-PADI4 from the same plasmid made without BirA (not biotinylated); also called Bio-hPADI4 wt; Avi-His-PADI4; source: E. coli BL21-DE3 co-expressing biotin ligase (BirA), purified (Ni-NTA, S200 size exclusion); not shown: Avi-Tag, N-terminal, kept; His6, N-terminal, kept
T1 sequence (Q9UM07 whole entry G55S/V82A/G112A, the tested form may be a part): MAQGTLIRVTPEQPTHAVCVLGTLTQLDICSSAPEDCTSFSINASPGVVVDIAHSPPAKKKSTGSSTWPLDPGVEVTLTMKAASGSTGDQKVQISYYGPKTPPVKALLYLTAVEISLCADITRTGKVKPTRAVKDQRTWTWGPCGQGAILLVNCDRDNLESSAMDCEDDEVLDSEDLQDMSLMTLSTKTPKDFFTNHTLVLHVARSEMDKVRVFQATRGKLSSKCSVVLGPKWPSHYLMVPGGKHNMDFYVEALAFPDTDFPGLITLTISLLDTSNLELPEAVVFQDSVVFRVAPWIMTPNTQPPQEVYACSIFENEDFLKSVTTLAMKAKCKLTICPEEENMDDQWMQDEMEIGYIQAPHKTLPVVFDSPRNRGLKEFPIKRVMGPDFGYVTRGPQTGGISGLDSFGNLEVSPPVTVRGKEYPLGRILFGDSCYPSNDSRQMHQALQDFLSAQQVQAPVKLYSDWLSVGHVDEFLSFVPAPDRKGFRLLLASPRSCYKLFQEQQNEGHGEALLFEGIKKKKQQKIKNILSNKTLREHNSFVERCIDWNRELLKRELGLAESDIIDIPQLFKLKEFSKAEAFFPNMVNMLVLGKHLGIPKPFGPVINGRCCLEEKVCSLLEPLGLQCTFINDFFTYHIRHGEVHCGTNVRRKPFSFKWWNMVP

[2] = biological target: T1, N-terminally biotinylated human PADI4 …; experiment: SPR; single cycle kinetics, Biacore T200 or S200; Bio-His-PADI4 captured on a Biotin CAPture chip (~2000 RU), peptide as analyte; 25 °C; 50 mM HEPES pH 7.5, 150 mM NaCl, 2 mM DTT, 0.05% Tween-20, 0.1% DMSO, 10 mM Ca2+; 1:1 binding model; conditions: both partners purified
[3] = biological target: T1, N-terminally biotinylated human PADI4 …; experiment: SPR; single cycle kinetics; Bio-His-PADI4 captured on a Biotin CAPture chip, peptide as analyte; 25 °C; 50 mM HEPES pH 7.5, 150 mM NaCl, 2 mM DTT, 0.05% Tween-20, 0.1% DMSO; CaCl2 concentration not stated for these data; 1:1 binding model; conditions: both partners purified
[4] = biological target: His-tagged recombinant human PADI4 (His-PADI4) (human, UniProt Q9UM07 1-663); experiment: cell-based or functional assay
Chain of His-tagged recombinant human PADI4 (His-PADI4) (Q9UM07 whole entry): as the sequence (Q9UM07 whole entry G55S/V82A/G112A, the tested form may be a part) above, with S55G, A82V, A112G counted along it

[5] = biological target: T2, PADI4_D165A (human, UniProt Q9UM07 1-663, D165A); experiment: cell-based or functional assay
T2 sequence (Q9UM07 whole entry D165A): as the sequence (Q9UM07 whole entry G55S/V82A/G112A, the tested form may be a part) above, with S55G, A82V, A112G, D165A counted along it

[6] = biological target: T3, PADI4_C166F (human, UniProt Q9UM07 1-663, C166F); experiment: cell-based or functional assay
T3 sequence (Q9UM07 whole entry C166F): as the sequence (Q9UM07 whole entry G55S/V82A/G112A, the tested form may be a part) above, with S55G, A82V, A112G, C166F counted along it

[7] = biological target: T4, PADI4_E167A (human, UniProt Q9UM07 1-663, E167A); experiment: cell-based or functional assay
T4 sequence (Q9UM07 whole entry E167A): as the sequence (Q9UM07 whole entry G55S/V82A/G112A, the tested form may be a part) above, with S55G, A82V, A112G, E167A counted along it

[8] = biological target: T5, PADI4_D168A (human, UniProt Q9UM07 1-663, D168A); experiment: cell-based or functional assay
T5 sequence (Q9UM07 whole entry D168A): as the sequence (Q9UM07 whole entry G55S/V82A/G112A, the tested form may be a part) above, with S55G, A82V, A112G, D168A counted along it

[9] = biological target: T6, PADI4_R394A (human, UniProt Q9UM07 1-663, R394A); experiment: cell-based or functional assay
T6 sequence (Q9UM07 whole entry R394A): as the sequence (Q9UM07 whole entry G55S/V82A/G112A, the tested form may be a part) above, with S55G, A82V, A112G, R394A counted along it

[10] = biological target: T2, PADI4_D165A; experiment: SPR; single cycle kinetics; biotinylated PADI4 (wild type or single-residue variant) captured on a Biotin CAPture chip, peptide or peptide analogue as analyte; 50 mM HEPES pH 7.5, 150 mM NaCl, 2 mM DTT, 0.05% Tween-20, 0.1% DMSO; 25 °C; CaCl2 concentration not told for these runs; conditions: both partners purified
[11] = biological target: T3, PADI4_C166F; experiment: as above; conditions: both partners purified
[12] = biological target: T4, PADI4_E167A; experiment: as above; conditions: both partners purified
[13] = biological target: T5, PADI4_D168A; experiment: as above; conditions: both partners purified
[14] = biological target: T7, PADI4_N373A (human, UniProt Q9UM07 1-663, N373A); experiment: as above; conditions: both partners purified
T7 construct: human PADI4, residues 1-663, single substitution; source: E. coli BL21-DE3, purified (Ni-NTA, S200 SEC), as told for the wild type
T7 sequence (Q9UM07 whole entry N373A, the tested form may be a part): as the sequence (Q9UM07 whole entry G55S/V82A/G112A, the tested form may be a part) above, with S55G, A82V, A112G, N373A counted along it

[15] = biological target: T6, PADI4_R394A; experiment: as above; conditions: both partners purified
[16] = biological target: T8, N-terminally biotinylated recombinant human PADI4 (bio-His-PADI4) (human, UniProt Q9UM07 1-663, biotin on the N-terminal Avi-Tag (BirA)); experiment: as above; conditions: both partners purified
T8 construct: human peptidylarginine deiminase IV (PADI4), residues 1-663; (vector p28BIOH-LIC, Addgene plasmid 62352); also called Bio-hPADI4 wt; PADI4_WT; source: E. coli BL21-DE3 co-expressing biotin ligase (BirA), purified (Ni-NTA, S200 SEC); not shown: Avi-Tag (biotinylated), N-terminal, kept; His6, N-terminal, kept
T8 sequence (Q9UM07 whole entry, the tested form may be a part): as the sequence (Q9UM07 whole entry G55S/V82A/G112A, the tested form may be a part) above, with S55G, A82V, A112G counted along it

[17] = biological target: human PADI4 stably expressed in E14 mouse embryonic stem cells (hPADI4-stable) (human, UniProt Q9UM07 1-663); experiment: cell-based or functional assay
Chain of human PADI4 stably expressed in E14 mouse embryonic stem cells (hPADI4-stable) (Q9UM07 whole entry): as the sequence (Q9UM07 whole entry G55S/V82A/G112A, the tested form may be a part) above, with S55G, A82V, A112G counted along it

[18] = biological target: T8, N-terminally biotinylated recombinant …; experiment: SPR; as a1 but 0 mM CaCl2 (calcium-free running buffer); Bio-His-PADI4 captured, peptide as analyte; 25 °C; 1:1 binding model; conditions: both partners purified
[19] = biological target: T9, bio-His-PADI4 with the active site covalently blocked by Cl-amidine (human, UniProt Q9UM07 1-663, biotin on the N-terminal Avi-Tag (BirA); active site covalently blocked with Cl-amidine (residue not stated)); experiment: SPR; as a1 with 10 mM CaCl2 and the PADI4 active site blocked with Cl-amidine; Bio-His-PADI4 captured, peptide as analyte; 25 °C; 1:1 binding model; conditions: both partners purified
T9 construct: human peptidylarginine deiminase IV (PADI4), residues 1-663; Same protein as m1; also called 10 mM CaCl2 + Cl-amidine; source: E. coli BL21-DE3 co-expressing biotin ligase (BirA), purified (Ni-NTA, S200 SEC); treated with Cl-amidine; not shown: Avi-Tag (biotinylated), N-terminal, kept; His6, N-terminal, kept
T9 sequence (Q9UM07 whole entry, the tested form may be a part): as the sequence (Q9UM07 whole entry G55S/V82A/G112A, the tested form may be a part) above, with S55G, A82V, A112G counted along it

[20] = biological target: T8, N-terminally biotinylated recombinant …; experiment: SPR; single cycle kinetics, Biacore T200 or S200; Bio-His-PADI4 captured on a Biotin CAPture chip (~2000 RU), peptide as analyte; 50 mM HEPES pH 7.5, 150 mM NaCl, 2 mM DTT, 0.05% Tween-20, 0.1% DMSO, 10 mM CaCl2; 25 °C; 1:1 binding model; conditions: both partners purified

B1: PADI4_11 (peptide)
peptide: YESCRYRQVLQL
modifications: not fully specified; acetylated N-terminus (L-tyrosine 1) joined by a thioether bond to the side chain of Cys4 (cyclic); C-terminal amide
notes: cyclic peptide from RaPID selection 3; also called PAD4_11; source: synthetic peptide (Fmoc solid-phase synthesis, HPLC-purified)
koff [1]: 0.1 s⁻¹ | kon [1]: 300000 M⁻¹ s⁻¹ | koff [2]: 0.1 s⁻¹ | kon [2]: 200000 M⁻¹ s⁻¹

B2: PADI4_12 (peptide)
peptide: YEPCRFREILDL
modifications: not fully specified; acetylated N-terminus (L-tyrosine 1) joined by a thioether bond to the side chain of Cys4 (cyclic); C-terminal amide
notes: cyclic peptide from RaPID selection 3; also called PAD4_12; source: synthetic peptide (Fmoc solid-phase synthesis, HPLC-purified)
koff [1]: 0.2 s⁻¹ | kon [1]: 300000 M⁻¹ s⁻¹ | Kd [2]: 679 nM | koff [2]: 0.1 s⁻¹ | kon [2]: 200000 M⁻¹ s⁻¹

B3: PADI4_3i (peptide)
chain: YDRHHYRHPKYCG
modifications: not fully specified; D-tyrosine at position 1; acetylated N-terminus joined by a thioether bond to the side chain of Cys12 (cyclic); C-terminal amide
Kd [3]: > 10000 nM

B4: PADI4_2 (peptide)
peptide: YRDHRSPFDGYCG
modifications: not fully specified; D-tyrosine at position 1; cyclised via a thioether bond between the N-terminus (chloroacetylated) and the cysteine side chain (Cys12, from the letters); C-terminal amide
IC50 of inhibition of PADI4 activity (COLDER assay, substrate BAEE, 10 mM CaCl2, 50 nM PADI4) [4]: 209 nM

B5: PADI4_12 (peptide)
peptide: YEPCRFREILDL
modifications: not fully specified; L-tyrosine at position 1; cyclised via a thioether bond between the N-terminus (chloroacetylated) and the cysteine side chain (Cys4, from the letters); C-terminal amide
fold reduction of the calcium requirement K50(Ca2+) of PADI4 activity by 30 µM peptide (COLDER assay) [4]: 4 fold

B6: PADI4_11 (peptide)
peptide: {CH2CO}-YESCRYRQVLQL-NH2
modifications: thioether N-4
notes: cyclic (lariat) peptide from RaPID selection 3 (10 mM CaCl2 + Cl-amidine); also called PAD4_11; source: synthetic peptide (Fmoc solid-phase synthesis, HPLC purified)
ratio of K50(Ca2+) with DMSO to K50(Ca2+) with 30 µM PADI4_11 (COLDER assay) [5]: 1.5 fold | ratio of K50(Ca2+) with DMSO to K50(Ca2+) with 30 µM PADI4_11 (COLDER assay) [6]: 0.9 fold | ratio of K50(Ca2+) with DMSO to K50(Ca2+) with 30 µM PADI4_11 (COLDER assay) [7]: 2.7 fold | ratio of K50(Ca2+) with DMSO to K50(Ca2+) with 30 µM PADI4_11 (COLDER assay) [8]: 2.9 fold | ratio of K50(Ca2+) with DMSO to K50(Ca2+) with 30 µM PADI4_11 (COLDER assay) [9]: 1.1 fold | Kd [10]: 3000 nM | Kd [11]: > 10000 nM | Kd [12]: 700 nM | Kd [13]: 4000 nM | Kd [14]: > 10000 nM | Kd [15]: > 10000 nM

B7: PADI4_3_R2Cit (peptide)
chain: YRDHHYRHPKYCG
modifications: citrulline at position 2; else as PADI4_3: D-tyrosine at position 1; thioether cyclisation between the N-terminus and the cysteine side chain; C-terminal amide
IC50 of inhibition of PADI4 activity (COLDER assay) [4]: 1100 nM | Kd [16]: 20 nM

B8: PADI4_3 (peptide)
peptide: {CH2CO}-[dY]RDHHYRHPKYCG-NH2
modifications: thioether N-12
notes: cyclic peptide from RaPID selection 1 (10 mM CaCl2); source: synthetic peptide (Fmoc solid-phase synthesis, HPLC purified)
EC50 of inhibition of H3 citrullination in hPADI4-stable mES cells stimulated with KSR/2i for 3 h (high-content imaging) [17]: 200 nM | Kd [10]: 61 nM | Kd [11]: 3 nM | Kd [12]: 7 nM | Kd [13]: 20 nM | Kd [14]: 83 nM | Kd [15]: 8 nM

B9: PADI4_1 (peptide)
peptide: YFYRIGFWYPNYQCG
modifications: not fully specified; D-tyrosine at position 1; cyclised via a thioether bond between the N-terminus (chloroacetylated) and the cysteine side chain (Cys14, from the letters); C-terminal amide
notes: cyclic peptide from RaPID selection 1 (10 mM CaCl2); also called PAD4_1; source: synthetic peptide (Fmoc solid-phase synthesis, HPLC purified)
Kd [18]: 105 nM | Kd [19]: 727 nM | Kd [20]: 205 nM

B10: PADI4_4 (peptide)
peptide: YHRLIVVIYVCG
modifications: not fully specified; D-tyrosine at position 1; cyclised via a thioether bond between the N-terminus (chloroacetylated) and the cysteine side chain (Cys11, from the letters); C-terminal amide
notes: as for B8
Kd [18]: > 2000 nM | Kd [19]: > 2000 nM | Kd [20]: > 2000 nM

B11: PADI4_5 (peptide)
peptide: YATPWLIVVLCG
modifications: not fully specified; D-tyrosine at position 1; cyclised via a thioether bond between the N-terminus (chloroacetylated) and the cysteine side chain (Cys11, from the letters); C-terminal amide
notes: as for B8
Kd [18]: > 2000 nM | Kd [19]: > 2000 nM | Kd [20]: > 2000 nM

B12: PADI4_6 (peptide)
peptide: YLVLTIRLVLCG
modifications: not fully specified; D-tyrosine at position 1; cyclised via a thioether bond between the N-terminus (chloroacetylated) and the cysteine side chain (Cys11, from the letters); C-terminal amide
notes: as for B8
Kd [18]: > 2000 nM | Kd [19]: > 2000 nM | Kd [20]: > 2000 nM

B13: PADI4_7 (peptide)
peptide: YYPKGSWGYKLFCG
modifications: not fully specified; D-tyrosine at position 1; cyclised via a thioether bond between the N-terminus (chloroacetylated) and the cysteine side chain (Cys13, from the letters); C-terminal amide
notes: cyclic peptide from RaPID selection 2 (0 mM CaCl2); also called PAD4_7; source: synthetic peptide (Fmoc solid-phase synthesis, HPLC purified)
Kd [18]: 8 nM | Kd [19]: 36 nM | Kd [20]: 39 nM

B14: PADI4_8 (peptide)
peptide: YTLWTVLVVICCG
modifications: not fully specified; D-tyrosine at position 1; cyclised via a thioether bond between the N-terminus (chloroacetylated) and the cysteine side chain (the cysteine marked C(S-), Cys11 from the letters); C-terminal amide
notes: cyclic peptide from RaPID selection 2 (0 mM CaCl2); source: synthetic peptide (Fmoc solid-phase synthesis, HPLC purified)
Kd [18]: > 2000 nM | Kd [19]: > 2000 nM | Kd [20]: > 2000 nM

B15: PADI4_9 (peptide)
peptide: YAQWYIWVLLCG
modifications: not fully specified; D-tyrosine at position 1; cyclised via a thioether bond between the N-terminus (chloroacetylated) and the cysteine side chain (Cys11, from the letters); C-terminal amide
notes: as for B14
Kd [18]: > 2000 nM | Kd [19]: > 2000 nM | Kd [20]: > 2000 nM

B16: PADI4_10 (peptide)
peptide: YPWEISVWLLYCG
modifications: not fully specified; D-tyrosine at position 1; cyclised via a thioether bond between the N-terminus (chloroacetylated) and the cysteine side chain (Cys12, from the letters); C-terminal amide
notes: as for B14
Kd [18]: > 2000 nM | Kd [19]: > 2000 nM | Kd [20]: > 2000 nM
